Data from PMC3575545.
“And” between values parts separate entries of the source, which are not always exact repeats. Equal values may be shown once.

Experiments:
[1] = molecular target: acrylodan-labeled FtsY Cys356 (UniProt P10121); test: other fluorescence titration
[2] = molecular target: SRP (Ffh bound to 4.5 S RNA) with DACM-labeled Ffh Cys235 (UniProt P0AGD7); test: FRET or BRET

Substance	fold stabilisation of the activated complex by SecYEG (against no SecYEG) [1]	Kd [2]	fold destabilisation of the early complex by SecYEG (against no SecYEG) [2]
Signal recognition particle (SRP; Ffh bound to 4.5 S RNA) (from UniProt P0AGD7 1-453) (complex)	2 fold and 4 fold		
BODIPY-FL-labeled FtsY Cys487 (full-length FtsY) (from UniProt P10121 1-497) (receptor)		0.162 µM	> 15 fold
